Variants at the floor of the assay were thinned out.
B1: TPR 5TU (parent)
chain: GGAUCUUCUCGAUCUAACAAAAAAGACAAAUCUGCCACAAAGCUUGAGAGCAUCUUCGGAUGCAGAGGCGGCAGCCUUCGGUGGCGCGAUAGCGCCAACGUUCUCAACUAUGACACGCAAAACGCGUGCUCCGUUGAAUGGAGUUUAUCAUG

Variants of: B1
Experiment: polymerase ribozyme fitness, log enrichment relative to wild type (log ratio); higher = more active; in vitro selection for triplet polymerase activity
Procedure, shortened: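 For each subunit of a heterodimeric triplet polymerase ribozyme, a mutant library was built by PCR and transcribed, then taken through a single in vitro selection round in triplicate. Selection involved annealing to a biotinylated primer, the partner subunit and triplets, incubation frozen at −7 °C, gel excision of extended constructs, capture on streptavidin beads and RT-PCR. Genotypes were retained after Illumina sequencing of inputs and outputs only with ≥10 input reads and ≥1 read in each output. Fitness is defined as the logarithm of a genotype's enrichment relative to wild-type enrichment, using inverse-variance-weighted averages across replicates, with the logarithm taken to base 2.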

Variant | polymerase ribozyme fitness (log ratio)
GGAUCUUCUCGAUCUAACAAAAAAGACAAAUCUGCCACAAAGCUUGAGAGCAUCUUCGGAUGCAGAGGCGGCAGCCUUCGGUGGCGCGAUAGCGCGAACGUUCUCAACUAUGACACGCAAUACGCGUGCUCCGUUGAAUGGAGUUUAUCAUG | -0.582
GGAUCUUCUCGAUCUAACAAAAAAGACAAAUCUGCCACAAAGCUUGAGAGCAUCUUCGGAUGCAGAGGCGGCAGCGCUCGGUGGCGCGAUAGCGCCAACGUUCUCAACUAUGACACGCAAAACGCGUGCUCCUUUGAAUGGAGUUUAUCAUG | ≤ -4.2
GGAUCUUCUCGAUCUAACAAAAAAGACAAAUCUGCCACAUAGCUUGACAGCAUCUUCGGAUGCUGAGGCGGCAGCCUUCGGUAGCGCGAUAGCGCCAACGUUCUCAACUAUGACACGCAAAACGCGUGCUCCGUUGAAUGGAAUUUAUCAUG | ≤ -4.2
GGAUCUUCUCGAUCUAACAAAAAAGACAAAUCUGCCACAAAGCUUGAGAGCAUCUACAGAUGCAGAGGCGGCUGCCUUCGGUGGCGCGAUAGCGCGAACGUUCUCAACUAUGACACGCAAAACGCGUGCUCCGUUGAAUGGAGUUUAUCAUG | -1.81
GGAUCUUCUCGAUCUAACAAAAAAGACAAAUCCGCCACAAAGCUUGAGAGCAUCUUCGGAUGCAGAGGCGGCAGCCUUCGGUGGCGCGAUAGCGCCAACGUUCUCAACUAUGACACGCAAAACGAGUGCUCCGUUGAAUGGAGUUUAUCAUG | -3.35
GGAUCUUCUCGAUCUAACAAAAAAGACAAAUCUGCCACAAAGCUUGAGAGCAUCUUCGGAUGCAGAGGCGGCAGCCUUCGGUAGCGCGAUAGCGCCAACGUUCUCAACUAUGACACGCAAAACGCGUGCUCUGUUGAAUGGAGUUUAUCAUG | -0.931
GGAUCUACUCGAUCUAACAAAAAAGACAAUUUUGCCACAAAGUUUGAGAGCAUCUUCGGUUGCAGAGGCGGCAGCCUUCGGUGGCGCGAUAGCGCAAACGUUCUCAUCUAUGACACGCAAAACGCGUGCUCCGUUGAAUGGAGUUUAUCAUG | -3.92
GGAUCUUCUCGAUCUAACAAAAAAGACAAAUCUGCCACAAAGCUUGAGAGCAUCUUCGGAUGCAGAGGCGGCAGCCUUCGGUGGCGCGCUAGUGCCAACGUUCUCAACUAUGACAUGCAAAACGCGUACUCCGUUGAAUGGAGUUUAUCAUG | ≤ -4.2
GGAUCUUCUCGAUCUAACAAACAAGACAAAUCUGCCCCAAAGCUUGAGAGCAUCUUCGUAUGCAGAGGCGGCAGCCUUCGGUGGCGCGUUAGGGCCAACGUUCUCAACUAUGACACGCUAAACGCGUGCUCCGUUGAAUGGAGUUUAUCAUG | ≤ -4.2
GGAUCUUCUCGAUCUAACAAAAAAGACAAAUCUGCCACAAAGCUUGAGAGCAUCUUCGGAUGCAGAGGCGGCAGCCUUCGCUGGCGUGAUAGCGCCAACCUUCUCAACUAUGACACACAAAACGCCUGCUCCGUUGAAUGGAGUUUAUCAUG | ≤ -4.2
GGAUCUUCUCGAUCUAACAAAAAAGACAAAUCUGCCACAAAGCUUAAGAGCAUCUUCGGAUGCAGAGGCGGCAGUCUUCGGUGGAGCGAUAGCGCCAACGUUCUCGACUAUGACACGCAAAACGCGUGCUCCGUUGAAUGGAGUUUAUCAUG | ≤ -4.2
GGAUCUUCUCGAUCUAACAAAAAAGACAAAUCUGCUACAAAGCUUAAGAGCAUCUUCGGAUGCAGAGGCAGCAGCCUUCGGUCGCGCGAUAGCGCCAACGUUCUCAACUAUGACACGCAUAACGCGUGCUCCCUUGAAUGGAGUUUAUCAUG | -3.23
GGAUCUUCUCGAUCUCACAACAAAGACAAAUCUGCCACAAAGCUUGAGAGCAUCUUCGGAAGCAGAGGCGGCAGCCUUCGGUGGCGCGAUAGCGCCAACGUUCUCAACUAUGACACGCAAAACGCGUGCUCCGUUGAAUGGAGUUUAUCAUG | -1.52
GGAUCUUCUCGAUCUAACAAAAAAGACAAAUCUGCCACAAAGCUUGAGAGCUUCUUCGGAUGCAGAGGCGGCAGCCUUCGGUGGCCCGAUCGCGCCAACGUUCUCAACUAUGACACGCAAAACGCGUGCUCCGUUGAACGGAGUUUAUCAUG | ≤ -4.2
GGAUCUUCUCGAUCUAACAAAAAAGACAAAUCUGCCACAAAGCUUGAGAGCAUCUUCGGAUGCAGAGGCGGCAGCCUUCGGUGGAGCGAUAGCGCCAACGUUCUCAACUAUGACACGCAAAACGCGUGCUCCCUUGAAUGGAGUUUAUCAUG | -3.5
GGAUCUUCUCGAUCUAACGAAAAAGACAAAUCUGUCACAAAGCUUGAGAGUAUCUUCGGAUGCAGAGGCGGCAGCCUUCGGUGGCGCGAUAGCGCUAACGUUCUCAACUAUGACACGCAAAACGCGUGCUCCGUUGAAUGGAGUUUAUCAUG | -1.35
GGAUCUUCUCGAUCUAACAAAAACGACAAAUCUGCCACAAAGCUUGAGAGCAUCUUCGUAUGCAGAGGCGGCGGCCUUCGGUGGCGCGAUAGCGCCAACGUUCUCAACUAUGACACGCAAAACGCGUGCUCCGUUGAAUGGAGUUUAUCUUG | -3.13
GGAUCUUCUCGAUCUAACAAAAAAGACAAAUCUGCCACAAAGCUUGAGAGCGUCUUCGGAUGCAGAGGCGGCAGCCUUCGGUCGCGCGAUAGCGCCAACGUUCUCAACUAUGACACGCAAAACGCGUGCUCCGUUGAAUGGAGUUUAUCAUG | -2.18
GGAUCUUCUCGAUGUAACAAAAUAGACAAAUCUGCCACAAAGCUUGAGAGCCUCUUCGGAUGCAGAGGCGGCAGCCUUCGGUGACGCGAUAGCGCCAACGUUCUCAACUAUGACACGUAAAACGCGUGCUCCGUUGAAUGGAGUUUAUCAUG | ≤ -4.2

Source: the RNAGym collection of RNA variant scans (doi:10.1073/pnas.2313332121)
